{
  "source": "paper PMC10514313",
  "about": "“Identification of enzymatic functions of osmo-regulated periplasmic glucan biosynthesis proteins from Escherichia coli reveals a novel glycoside hydrolase family” (Communications Biology, 2023)",
  "molecules": {"B1": {"name": "OpgD from E. coli (EcOpgD), wild type, without signal sequence, C-terminal His6-tag (enzyme, Escherichia coli, UniProt P40120 33-551, looked up)", "chain": "ADSDIADGQTQRFDFSILQSMAHDLAQTAWRGAPRPLPDTLATMTPQAYNSIQYDAEKSLWHNVENRQLDAQFFHMGMGFRRRVRMFSVDPATHLAREIHFRPELFKYNDAGVDTKQLEGQSDLGFAGFRVFKAPELARRDVVSFLGASYFRAVDDTYQYGLSARGLAIDTYTDSKEEFPDFTAFWFDTVKPGATTFTVYALLDSASITGAYKFTIHCEKSQVIMDVENHLYARKDIKQLGIAPMTSMFSCGTNERRMCDTIHPQIHDSDRLSMWRGNGEWICRPLNNPQKLQFNAYTDNNPKGFGLLQLDRDFSHYQDIMGWYNKRPSLWVEPRNKWGKGTIGLMEIPTTGETLDNIVCFWQPEKAVKAGDEFAFQYRLYWSAQPPVHCPLARVMATRTGMGGFSEGWAPGEHYPEKWARRFAVDFVGGDLKAAAPKGIEPVITLSSGEAKQIEILYIEPIDGYRIQFDWYPTSDSTDPVDMRMYLRCQGDAISETWLYQYFPPAPDKRQYVDDRVMS", "notes": "OpgD (glucans biosynthesis protein D) of Escherichia coli, gene amplified from a colony of E. coli BL21(DE3), GenBank CAQ31910.2; theoretical mass 60601 Da; Cloned between the XhoI and NdeI sites of pET30a; also called MdoD; source: E. coli BL21(DE3), purified (HisTrap FF crude)"}, "B2": {"name": "EcOpgD D388N mutant, without signal sequence, C-terminal His6-tag (enzyme, Escherichia coli, UniProt P40120 33-551, looked up)", "chain": "B1 chain with D356N", "notes": "made from the EcOpgD plasmid of m1; text and methods say D388N; source: E. coli BL21(DE3), purified (HisTrap FF crude)"}, "B3": {"name": "OpgG from E. coli (EcOpgG), wild type, without signal sequence, C-terminal His6-tag (enzyme, Escherichia coli, UniProt P33136 23-511, looked up)", "chain": "FSIDDVAKQAQSLAGKGYETPKSNLPSVFRDMKYADYQQIQFNHDKAYWNNLKTPFKLEFYHQGMYFDTPVKINEVTATAVKRIKYSPDYFTFGDVQHDKDTVKDLGFAGFKVLYPINSKDKNDEIVSMLGASYFRVIGAGQVYGLSARGLAIDTALPSGEEFPRFKEFWIERPKPTDKRLTIYALLDSPRATGAYKFVVMPGRDTVVDVQSKIYLRDKVGKLGVAPLTSMFLFGPNQPSPANNYRPELHDSNGLSIHAGNGEWIWRPLNNPKHLAVSSFSMENPQGFGLLQRGRDFSRFEDLDDRYDLRPSAWVTPKGEWGKGSVELVEIPTNDETNDNIVAYWTPDQLPEPGKEMNFKYTITFSRDEDKLHAPDNAWVQQTRRSTGDVKQSNLIRQPDGTIAFVVDFTGAEMKKLPEDTPVTAQTSIGDNGEIVESTVRYNPVTKGWRLVMRVKVKDAKKTTEMRAALVNADQTLSETWSYQLPANE", "notes": "OpgG (glucans biosynthesis protein G) of Escherichia coli, gene amplified from a colony of E. coli BL21(DE3), GenBank CAQ31569.1; theoretical mass 56543 Da; Cloned between the XhoI and NdeI sites of pET30a; also called MdoG; source: E. coli BL21(DE3), purified (HisTrap FF crude)"}, "B4": {"name": "EcOpgG D361N mutant, without signal sequence, C-terminal His6-tag (enzyme, Escherichia coli, UniProt P33136 23-511, looked up)", "chain": "B3 chain with D339N", "notes": "made from the EcOpgG plasmid of m2; One monomer in the asymmetric unit; the second chain of the dimer is a symmetry mate; source: E. coli BL21(DE3), purified (HisTrap FF crude)"}},
  "key": {"EcOpgD": {"target": "T1, EcOpgD (Escherichia coli, UniProt P40120, D388N)", "T1 construct": "gene mdoD; 60601 Da; homodimer, Loop A of the other subunit completes the site", "T1 sequence (P40120 33-551 D388N)": "B1 chain with D356N", "assay": "X-ray crystal structure of the complex ([…] Å)", "assay_type": "binding", "settings": "co-crystallised with β-1,2-glucan of average DP 121, Sop13 is the part seen in density (chain B; DP11 in chain A); pH 4.0; subsites -7 to +6; Table 3 prints the mutant as D378N"}, "EcOpgG": {"target": "T2, EcOpgG (Escherichia coli, UniProt P33136, D361N)", "T2 construct": "gene mdoG; 56543 Da; homodimer", "T2 sequence (P33136 23-511 D361N)": "B3 chain with D339N", "assay": "X-ray crystal structure of the complex ([…] Å)", "assay_type": "binding", "settings": "crystallised and soaked with β-1,2-glucan of average DP 17.7, Sop16 is the part seen in density; pH 5.0"}, "[1]": {"target": "the molecule itself", "assay": "SEC; Superdex 200GL (24 ml), 20 mM Tris-HCl pH 7.5, 100 mM NaCl, 0.5 mg/mL protein loaded, 0.3 mL/min; molecular weight from marker proteins"}, "[2]": {"target": "the molecule itself", "assay": "crystal structure; ligand-free EcOpgD D388N, 2.95 Å, 12 monomers (six dimers) in the asymmetric unit; 0.1 M Tris-HCl pH 8.5, 0.1 M trimethylamine-N-oxide, 17% PEG 2000 MME, 20 °C"}, "[3]": {"target": "the molecule itself", "assay": "crystal structure; EcOpgG D361N with β-1,2-glucan, 1.81 Å, one chain in the asymmetric unit, dimer with a symmetry mate; 0.1 M MMT pH 5.0, 27% PEG 400, 20 °C"}},
  "note": "Substitutions are numbered along the chain they refer to. Numbers in names are those of the source.",
  "data": [
    {"molecule": "OC[C@H]1O[C@@H](O[C@H]2[C@H](O[C@H]3[C@H](O[C@H]4[C@H](O[C@H]5[C@H](O[C@H]6[C@H](O[C@H]7[C@H](O[C@H]8[C@H](O[C@H]9[C@H](O[C@H]%10[C@H](O[C@H]%11[C@H](O[C@H]%12[C@H](O[C@H]%13C(O)O[C@H](CO)[C@@H](O)[C@@H]%13O)O[C@H](CO)[C@@H](O)[C@@H]%12O)O[C@H](CO)[C@@H](O)[C@@H]%11O)O[C@H](CO)[C@@H](O)[C@@H]%10O)O[C@H](CO)[C@@H](O)[C@@H]9O)O[C@H](CO)[C@@H](O)[C@@H]8O)O[C@H](CO)[C@@H](O)[C@@H]7O)O[C@H](CO)[C@@H](O)[C@@H]6O)O[C@H](CO)[C@@H](O)[C@@H]5O)O[C@H](CO)[C@@H](O)[C@@H]4O)O[C@H](CO)[C@@H](O)[C@@H]3O)O[C@H](CO)[C@@H](O)[C@@H]2O)[C@H](O)[C@@H](O)[C@@H]1O", "note": "(stereo partly drawn) [Sop13]", "values": [
      {"measurement": "X-ray crystal structure of the complex (2.06 Å)", "setting": "EcOpgD", "value": "electron densities of β-1,2-glucans with DP11 and DP13 (Sop11 and Sop13, respectively) were clearly observed"}
    ]},
    {"molecule": "OC[C@H]1O[C@@H](O[C@H]2[C@H](O[C@H]3[C@H](O[C@H]4[C@H](O[C@H]5[C@H](O[C@H]6[C@H](O[C@H]7[C@H](O[C@H]8[C@H](O[C@H]9[C@H](O[C@H]%10[C@H](O[C@H]%11[C@H](O[C@H]%12[C@H](O[C@H]%13[C@H](O[C@H]%14[C@H](O[C@H]%15[C@H](O[C@H]%16C(O)O[C@H](CO)[C@@H](O)[C@@H]%16O)O[C@H](CO)[C@@H](O)[C@@H]%15O)O[C@H](CO)[C@@H](O)[C@@H]%14O)O[C@H](CO)[C@@H](O)[C@@H]%13O)O[C@H](CO)[C@@H](O)[C@@H]%12O)O[C@H](CO)[C@@H](O)[C@@H]%11O)O[C@H](CO)[C@@H](O)[C@@H]%10O)O[C@H](CO)[C@@H](O)[C@@H]9O)O[C@H](CO)[C@@H](O)[C@@H]8O)O[C@H](CO)[C@@H](O)[C@@H]7O)O[C@H](CO)[C@@H](O)[C@@H]6O)O[C@H](CO)[C@@H](O)[C@@H]5O)O[C@H](CO)[C@@H](O)[C@@H]4O)O[C@H](CO)[C@@H](O)[C@@H]3O)O[C@H](CO)[C@@H](O)[C@@H]2O)[C@H](O)[C@@H](O)[C@@H]1O", "note": "(stereo partly drawn) [Sop16]", "values": [
      {"measurement": "X-ray crystal structure of the complex (1.81 Å)", "setting": "EcOpgG", "value": "In the catalytic pocket of the complex, the electron density of a Sop16 molecule was observed"}
    ]},
    {"molecule": "B1", "values": [
      {"measurement": "stoichiometry N", "setting": "[1]", "value": 2}
    ]},
    {"molecule": "B2", "values": [
      {"measurement": "binding result", "setting": "[2]", "value": "binds"}
    ]},
    {"molecule": "B3", "values": [
      {"measurement": "stoichiometry N", "setting": "[1]", "value": 2}
    ]},
    {"molecule": "B4", "values": [
      {"measurement": "binding result", "setting": "[3]", "value": "binds"}
    ]}
  ]
}
